From patent publication US20160184401A1, “NON-AGGLOMERATING BIOCONJUGATES OF AMYLIN AND AMYLIN-MIMETIC COMPOUNDS, COMPOSITIONS COMPRISING THE SAME, AND MAKING AND USE THEREOF” (UNIVERSIDADE FEDERAL DO RIO DE JANEIRO, priority 2013, published 2016) come the findings set out here.

Data set [1] concerns the target RAMP2 (Homo sapiens, UniProt O60895). Nature of the data set: RAMP2 coreceptor binding, fluorescence anisotropy of RAMP-FITC. The conditions noted are these: duplicate assays, FIG. 5. As to the method: (§1) Purified monoPEGylated human amylin was assayed for RAMP2 and RAMPS coreceptor binding interaction.
(§2) RAMP (receptor activity modifying protein) was labeled with fluorescein isothiocianate for 1 h at 4° C. in PBS ([…]) pH 7.4, and purified by size exclusion chromatography (SEC) in Sepharose G25 (agarose-based chromatography media, provided by the US company GE Healthcare) using the same buffer. Labelling was confirmed by UV absorbance measurements at A280 and A490, allowing estimation of coupling efficiency, relying on about 0.5 fluorescein/RAMP molecule.
On the technique in general: In fluorescence polarisation assays a small probe gives low polarisation when free and higher when bound to something large.

The target in data set [2] is T1, RAMP3 (Homo sapiens, UniProt O60896).
T1 sequence (O60896 24-148): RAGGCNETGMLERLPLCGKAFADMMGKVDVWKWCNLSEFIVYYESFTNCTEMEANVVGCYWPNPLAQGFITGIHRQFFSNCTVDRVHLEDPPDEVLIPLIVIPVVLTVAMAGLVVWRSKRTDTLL
Nature of the data set: RAMP3 coreceptor binding, fluorescence anisotropy of RAMP-FITC. The conditions noted are these: duplicate assays, FIG. 6. As to the method:
as §1, §2

Data set [3] is described as follows: Amyloid aggregation of human amylin by thioflavin T (ThT) binding. As to conditions: pH 7.4, FIG. 7. It is filed as physicochemical. Here is the method: Purified monoPEGylated human amylin of example 1 was re-suspended in DMSO and diluted to PBS pH 7.4 and allowed to incubate at 37° C. Samples were evaluated for amyloid aggregates by using the amyloid chromogenic probe thioflavin T (ThT). The employment of ThT binding protocols to measure amyloid fibril formation has already been determined in the art (see, e.g., Levine, 1999). The kinetics of amylin (50 μM of free or hAmy-PEG5k) aggregation was performed by incubating the protein in 10 mM NaH2PO4 pH 7.4 at 25° C. Aggregation was followed by the binding of Thioflavin T (ThT) to amyloid fibrils, by adding 160 μL sample with 40 μL ThT 100 μM and monitoring fluorescence by exciting at 450 nm and measuring emission at 482 nm for 24 h

Data set [4] is described as follows: Short-term stability with insulin analogues, ThT binding assay. As to conditions: 10 μM of each compound, 10 mM NaH2PO4 pH 7.4, 24h at 25° C.; FIG. 13A-D. It is filed as physicochemical. Here is the method:
The aggregation ratio of human amylin or its PEGylated derivative upon combination with insulin R, insulin detemir, or insulin glargine was tested by ThT binding assay. Combinations (10 μM of each compound) were incubated with 10 mM NaH2PO4 pH 7.4 and in presence of 10 μM ThT, for 24h at 25° C. Fluorescence variations indicating amyloid fibers formation were monitored by exciting at 450 nm and measuring emission at 482 nm.

Data set [5] can be described thus: Short-term pH-dependent aggregation, ThT fluorescence. Format: physicochemical. As to conditions: pH 3.0 to 10.0, 24h at 25° C.; FIGS. 10, 11. Here is the method: In a first setting, free human amylin, […] incubated in aqueous buffered solutions with different pH (from 3.0 to 10.0) in the presence of ThT. Fluorescence emissions derived from ThT binding to amyloid fibers were monitored for 24h at 25° C. […] These findings support the hypothesis that acylated derivatives of human amylin have increased stability in aqueous solutions, especially, in physiologic pH ranges.

The nature of data set [6]: Pharmacokinetics in rats, plasma ELISA for human amylin. It is filed as in vivo, Harlan Sprague Dawley male rats. As to conditions: 100 μg peptide in 500 uL saline, FIG. 8A-C. Here is the method:
The pharmacokinetics of the hAmy-PEG5k and hAmy-PEG20k were characterized in vivo in Harlan Sprague Dawley male rats. The animals were housed in a temperature-controlled room with a light-dark cycle of 12 h. Water and food were available ad libitum. Three groups were formed, control (free human amylin, not PEGylated), hAmy-PEG5k and hAmy-PEG20k. Animals received 500 uL of saline containing 100 μg of human amylin peptides, either free human amylin or purified monoPEGylated human amylin derivatives. Blood was collected retro-orbitally from rats (n=3 rats for each time interval), and the plasma was subjected to ELISA assay for human amylin as provided by the manufacturer (Millipore, Cat Number EZHA-52K.

Data set [7] can be described thus: Long-term effect of pH on aggregation of hAmyPEG5k. It is filed as physicochemical. The conditions noted are these: 7 days at 25° C. then 9 days at 37° C. (16 days total); FIG. 12. As to the method:
In another experimental setting, the influence of pH over the stability of the hAmyPEG5k was also tested for a longer period of time (up to 16 days) and at higher energy environments (37° C.). […] (i.e., 16 days total).

Data set [8] is described as follows: Isoelectric focusing (pI determination). It is filed as physicochemical. The conditions noted are these: IEF, pH 3-10 linear immobilized pH gradient strips; FIG. 9. As to the method:
Sixty micrograms of acetylated human amylin (AcO-hAmy) or hAmyPEG5k were dissolved into 8 M urea, 2% CHAPS and 0.002% bromophenol blue buffer to a final volume of 125 μL. The samples were incubated into a 7 cm pH 3-10 linear immobilized pH gradient strips overnight prior to isoelectric focalization (IEF). The IEF was carried out in MultiPhor II (Pharmacia Biotech) device at 20° C. according to the following conditions, 200 V (1 min), ramping to 3500 V (90 min) and 3500 V (60 min). At the end, the strips were fixed with 0.20% glutaraldehyde (in 30% ethanol, 0.2 M sodium acetate) for 60 min at room temperature, and then stained for peptide identification by Coomassie brilliant blue R-250 (at 0.025% in 40% methanol, 7% acetic acid) for 30 min. The excess of Coomassie was removed by incubation with 0.1% acetic acid until no background visualization. The IEF can be easily calculated from the relationship between displacements in the strips and pH. As depicted in FIG. 9, the acetylation of Lys1 present in AcO-hAmy (FIG. 9A) and the PEGylation in the same site, present in hAmy-PEG5k (FIG. 9B), results in similar effects on the pI of human amylin, […] it to approximately 9.2.

Ends that are not written are not given here.

Sequence of RAMP2 (O60895 43-175, species assumed): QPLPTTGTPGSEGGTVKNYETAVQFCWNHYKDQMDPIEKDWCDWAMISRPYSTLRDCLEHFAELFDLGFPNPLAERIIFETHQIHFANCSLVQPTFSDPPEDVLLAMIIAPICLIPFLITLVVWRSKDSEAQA

Take “HEWL: unrelated protein hen egg white lisozyme, control for non-specific binding”: the “apparent binding affinity for the coreceptor RAMP2” value in data set [1] is “nonspecific binding”. Moreover, the “apparent binding affinity for the coreceptor RAMP3” value in data set [2] is “nonspecific binding”.
Turning to “KCNTATCATQRLANFLVHSSNNFGAILSSTNVGSNTY [human amylin]”, the results for the “aggregation (ThT binding to amyloid fibrils)” value in data set [3] (50 μM) and in data set [3] (in 3 days) were “aggregates very fast” and “almost all free human amylin was aggregated in amyloid form”, respectively. Moreover, the “aggregation (ThT binding)” value in data set [4] is recorded as “aggregates”.
As to detemir, the “aggregation (ThT binding)” value in data set [4] is “negligible aggregation”.
Turning to glargine, the “aggregation (ThT binding)” value in data set [4] is given as “negligible aggregation”.
Consider “hAmy-PEG5k: monopegylated amylin obtained by the reaction of human amylin and mPEG 5000 Da (KCNTATCATQRLANFLVHSSNNFGAILSSTNVGSNTY; not fully specified (C-terminus, bridges); cysteine pairing not given here; also: mono-PEGylated with mPEG 5000 Da, site not given here)”, for which, in data set [5], the “aggregation kinetics / aqueous stability (ThT)” value was “improved aqueous stability and lower or absent formation of amyloid fibers”. The “aggregation (ThT binding to amyloid fibrils)” value in data set [3] (at day 7) was “no signs of aggregation”. The “plasma decay / duration of stability in plasma” value in data set [6] is on record as “longer duration of stability in plasma”. In addition, the “aggregation at different pH, long term” value in data set [7] is on record as “remains non-aggregated”. In addition, the pI result in data set [8] is “approximately 9.2”. In data set [4], the “aggregation (ThT binding)” value was “does not”.
With insulin R: recombinant insulin, in data set [4], the “aggregation (ThT binding)” value is “negligible aggregation”.
